The source of these data is paper PMC6853952, “MUC4-ErbB2 Oncogenic Complex: Binding studies using Microscale Thermophoresis” (Scientific Reports, 2019).

Bounds are passed on as bounds.

Assay [1] has as its target eGFP-MUC4β fusion protein (transmembrane β subunit of MUC4) (human) (UniProt Q99102). The assay is described as follows: MST; normal model, optimised conditions: MPer lysate with the eGFP fusion kept constant around 33 nM, Fc protein titrated 1:1 in PBS with 0.05% P20 from 1 µM to 0.05 nM; 80% MST power, MST-on 30 s; blue LED.
Assay [2] shares this target. In words: MST; normal model: eGFP fusion in CHO-K1 lysate kept constant, ErbB2-Fc titrated, label-free; lysis buffer MPer, dilution in MST buffer; 23 °C.
The target is the same in assay [3]. The assay is described as follows: MST; normal model: eGFP fusion in CHO-K1 lysate kept constant, ErbB2-Fc titrated, label-free; lysis buffer RIPA, dilution in Tris-based MST buffer; 23 °C.
The target is the same in assay [4]. The assay is described as follows: MST; normal model: eGFP fusion in CHO-K1 lysate kept constant, ErbB2-Fc titrated, label-free; lysis buffer RIPA, dilution in PBS; 23 °C.
In assay [5] the target is T1, recombinant human ErbB2-Fc chimera (human, UniProt P04626 23-652).
T1 construct: ErbB2 receptor tyrosine kinase, human; extracellular domains, lacks the TM and CT part; Described as a disulfide-linked homodimeric protein; In the reverse model it was labelled on its 6His-tag with RED-tris-NTA dye (not covalent); also called recombinant ErbB2
In words: MST; reverse model: ErbB2-Fc labelled on its 6His-tag with RED-tris-NTA dye kept constant, MPer lysate containing the eGFP fusion titrated 3:1 in PBS with 0.05% P20 (up to about 400 nM); red LED, 80% MST power. The following applies: one partner purified.

Assay [6] concerns the target T1, recombinant human ErbB2-Fc chimera. In words: MST; normal model, optimised conditions: MPer lysate with the eGFP fusion kept constant around 33 nM, Fc protein titrated 1:1 in PBS with 0.05% P20 from 1 µM to 0.05 nM; 80% MST power, MST-on 30 s; blue LED. The note with it: one partner purified.

The Kd is the concentration at which binding is half-saturated. Consider “PD-1-Fc (non-relevant protein containing the same Fc as recombinant ErbB2) (from UniProt Q15116 25-170) (Fc fusion)”, for which the dissociation constant Kd in assay [1] was over 20 µM.
Take “recombinant human ErbB2-Fc chimera (from UniProt P04626 23-652) (Fc fusion)”: the dissociation constant Kd in assay [2] is over 20 µM; in assay [1] it was 0.131 µM; in assay [3], over 20 µM; in assay [4], over 20 µM.

B1: eGFP-MUC4_(EGF3+1+2) (truncated mutant encompassing only the EGF domains of MUC4) (domain or fragment, human, UniProt Q99102 5118-5360, looked up)
chain: QNQSCPVNYCYNQGHCYISQTLGCQPMCTCPPAFTDSRCFLAGNNFSPTVNLELPLRVIQLLLSEEENASMAEVNASVAYRLGTLDMRAFLRNSQVERIDSAAPASGSPIQHWMVISEFQYRPRGPVIDFLNNQLLAAVVEAFLYHVPRRSEEPRNDVVFQPISGEDVRDVTALNVSTLKAYFRCDGYKGYDLVYSPQSGFTCVSPCSRGYCDHGGQCQHLPSGPRCSCVSFSIYTAWGEHCE
notes: MUC4, UniProt Q99102; said to hold the three EGF-like domains EGF3, EGF1 and EGF2 with what lies between; source: CHO-K1, transfected (peGFP-C1), selected, in cell lysate, used without further purification
As to B1, the Kd came out at 0.065 ± 0.014 µM in assay [5] and 0.079 ± 0.018 µM in assay [6].
